Experimental data reported in patent US20230227514A1, “BETA-ARRESTIN COMPOSITIONS AND ASSOCIATED METHODS” (Duke University, priority 2020, published 2023).

What was measured:
β2AR = target: T1, β2AR (Homo sapiens, UniProt P07550); test: Confocal trafficking and colocalization with β2AR; type: cell-based; details: HEK-293 cells with stable β2AR expression; agonist up to 20 minutes
T1 construct: Flag (N); expressed in transfected cells
Protocol: (§1) Immunostaining and confocal microscopy. […] Twenty-four hours post-transfection, cells were serum-starved for 4 h, and either left untreated or treated with respective agonists for the indicated times in the Figure descriptions. After stimulation, cells were fixed with 5% formaldehyde diluted in phosphate-buffered saline (PBS), permeabilized with 0.1% Triton in PBS containing 2% bovine serum albumin for 20 min and incubated at room temperature with appropriate primary antibody. The next day, cells were washed three times with PBS and incubated with Alexa594 conjugated secondary antibody for 1 h, followed by repeated washes using PBS. Confocal images were acquired using Zeiss LSM510 laser-scanning microscope using multitrack sequential with excitation (488 and 568 nm) and emission (BP 505-550 nm and LP 585 nm) filter sets. Images (1024×1024 pixels) were collected using either a 63× or 100× oil immersion lens. Images were processed for Figure presentation using Adobe Photoshop software, and any increase or decrease of brightness/contrast was applied to the entire image. The nuclear rim localization of YFP-βarrestin2-SUMO1 is readily visualized in cells with low to moderate expression of YFP-protein. In cells with high expression, this localization is present, and can be discerned by enlarging sections of the nuclear rim.
For βarrestin2-SUMO1, plasma membrane translocation was detected upon β2AR agonist activation, and, intriguingly, βarrestin2-SUMO1 was detected in endocytic vesicles. […] Confocal images were taken of cells stably expressing the β2AR and transiently expressing YFP-SUMO1 (data not shown). In both quiescent and agonist-treated cells, the SUMO1 protein remained in the nucleus. […] See Shenoy et al. 2007, supra; Shenoy and Lefkowitz. 2005. J Biol Chem 280:15315-15324; and Shenoy and Lefkowitz. 2003. J Biol Chem 278:14498-14506. Therefore, the endosomal trafficking was compared for βarrestin2-ubiquitin (βarrestin2-Ub) fusion protein and internalized β2ARs. […]

[1] = target: T2, D2 dopamine receptor (D2R) (Homo sapiens, UniProt P14416); test: Co-immunoprecipitation of βarrestin2 constructs with HA-D2R; type: binding; details: HEK-293 cells stably expressing HA-D2R, co-IP
T2 construct: expressed in transfected cells
T2 sequence (P14416 whole entry): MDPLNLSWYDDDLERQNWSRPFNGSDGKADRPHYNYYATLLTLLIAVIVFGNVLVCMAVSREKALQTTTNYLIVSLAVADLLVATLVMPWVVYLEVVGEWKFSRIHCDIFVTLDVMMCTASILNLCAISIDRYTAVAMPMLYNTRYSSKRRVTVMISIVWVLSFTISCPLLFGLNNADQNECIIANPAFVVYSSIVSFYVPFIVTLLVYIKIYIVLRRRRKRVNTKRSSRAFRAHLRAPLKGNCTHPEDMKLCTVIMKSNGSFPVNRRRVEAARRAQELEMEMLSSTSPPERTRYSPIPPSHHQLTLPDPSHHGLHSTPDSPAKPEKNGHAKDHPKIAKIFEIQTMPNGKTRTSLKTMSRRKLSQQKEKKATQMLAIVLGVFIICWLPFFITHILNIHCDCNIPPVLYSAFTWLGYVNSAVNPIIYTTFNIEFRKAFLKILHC
Protocol: Cross-linking, Immunoprecipitation and Immunoblotting. […] Twenty-four hours post-transfection, cells were starved in PBS containing 10 mM HEPES (pH 7.4) for 1 h and stimulated with vehicle or agonist (isoproterenol, 1 μM; or AVP 1 μM, or Dopamine 1 μM) at 37° C. for desired times. After stimulations, β2AR stable cells were treated with the crosslinker DSP to a final concentration of […], and plates were rocked for 20 min at room temperature. Reaction was quenched by adding 25 μl of 1M Tris-Cl pH 8.5 per 1 mL volume of buffer in the dish and rocked for additional 5 min at room temperature.
Harvested cells were washed with ice-cold PBS (pH 7.4) and solubilized in an ice-cold lysis buffer (50 mM HEPES (pH 7.5), 2 mM EDTA, 250 mM NaCl, 10% (v/v) glycerol, and 0.5% (v/v) IGEPAL CA-630) that was supplemented with phosphatase and protease inhibitors (1 mM sodium orthovanadate, 1 mM sodium fluoride, 1 mM phenylmethylsulfonyl fluoride, 5 μg/ml leupeptin, 5 μg/ml aprotinin, 1 μg/ml pepstatin A, and 100 μM benzamidine). […] Cell lysate protein concentrations were determined by Bradford protein assay and equivalent μg of proteins were immunoprecipitated using anti-FLAG M2 antibody resin (for FIG. 2) or Anti-HA magnetic beads from Thermo Pierce (for FIG. 5, FIG. 7, and FIG. 8). […] HA-D2R or HA-V2R were detected using an anti-HA IgG (Cell Signaling Technologies). […]

D2R = target: T3, D2R (Homo sapiens, UniProt P14416); test: Confocal trafficking and colocalization with D2R; type: cell-based; details: HEK-293 cells stably expressing D2R
T3 construct: HA (N); expressed in transfected cells
T3 sequence (P14416 whole entry): as above
Protocol: as §1, with “rim. […]” for “rim.”

HEK-293 cells = test: Confocal microscopy of subcellular distribution of YFP-tagged proteins; type: cell-based, Human; details: 85 cells (mYFP-βarrestin2-SUMO1) and 80 cells (mYFP-SUMO1) observed
Protocol: as §1, with “Images (1024×1024 pixels) were collected using either a 63× or 100× oil immersion lens. Images were processed for Figure presentation using Adobe Photoshop software, and any increase or decrease of brightness/contrast was applied to the entire image.” left out, “In cells with high expression, this localization is present, and can be discerned by enlarging sections of the nuclear rim.” left out
To circumvent this issue, a YFP tagged βarrestin2-SUMO1 fusion protein was generated, which would be resistant to the enzymatic activity of SENP1. YFP-βarrestin2-SUMO1 expressed in the cytoplasm akin to YFP-βarrestin2; but was also detected at the nuclear membrane (data not shown). […] While YFP-SUMO1 was concentrated in the nucleus, and nucleoli, very little βarrestin2-SUMO1 was detected in the nucleus or nucleolus. […]

RanGAP1 [2] = target: T4, RanGAP1 (Homo sapiens, UniProt P46060); test: Co-immunoprecipitation of YFP-βarrestin2 constructs with endogenous RanGAP1; type: binding; details: IP of YFP proteins, probed for RanGAP1
T4 construct: endogenous in cells; host or cells: HEK-293T / HEK-293
T4 sequence (P46060 2-587 limits assumed): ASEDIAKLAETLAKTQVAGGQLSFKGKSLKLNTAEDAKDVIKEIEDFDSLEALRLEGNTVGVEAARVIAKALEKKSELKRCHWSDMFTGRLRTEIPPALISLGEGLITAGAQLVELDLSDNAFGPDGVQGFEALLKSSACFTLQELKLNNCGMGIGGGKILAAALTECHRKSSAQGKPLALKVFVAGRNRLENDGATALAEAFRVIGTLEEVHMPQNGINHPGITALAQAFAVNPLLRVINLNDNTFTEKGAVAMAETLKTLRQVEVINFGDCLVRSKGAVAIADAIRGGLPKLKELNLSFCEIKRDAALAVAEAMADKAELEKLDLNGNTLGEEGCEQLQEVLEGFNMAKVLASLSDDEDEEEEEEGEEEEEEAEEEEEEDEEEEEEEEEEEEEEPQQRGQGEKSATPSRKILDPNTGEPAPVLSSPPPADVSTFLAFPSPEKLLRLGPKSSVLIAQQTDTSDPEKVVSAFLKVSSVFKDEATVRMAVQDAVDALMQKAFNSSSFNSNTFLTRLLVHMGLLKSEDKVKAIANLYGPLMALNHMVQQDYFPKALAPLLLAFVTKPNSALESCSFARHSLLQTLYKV
T4 sequence (P63165 2-97 partner limits assumed): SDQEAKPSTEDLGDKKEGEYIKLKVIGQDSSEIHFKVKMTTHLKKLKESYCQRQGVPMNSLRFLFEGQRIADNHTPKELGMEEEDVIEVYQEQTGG
Text: HEK-293T cells were transiently transfected with indicated plasmids and subjected to coimmunoprecipitation with GFP IgG (3E6, Thermo Fisher) to immunoprecipitate YFP-βarrestin2 or YFP-βarrestin2-SUMO1 (“IP: YFP”). IPs were probed for endogenous RanGAP1, and for βarrestins. Cell lysates were also blotted to determine total cell protein levels (“Lysates”). Blots shown are from one of three independent experiments.

RanGAP1 [3] = target: T4, RanGAP1; test: Confocal colocalization with endogenous RanGAP1 at the nuclear envelope; type: cell-based; details: HEK-293 cells with or without β2AR agonist stimulation
Protocol: as §1, with “rim. […]” for “rim.”

βarrestin2-SUMO1: rat βarrestin2 polypeptide fused to human SUMO1 (SEQ ID NO:1); used YFP- or Flag-tagged
colocalization / complexes with β2AR after agonist activation (confocal) (β2AR): persisted with longer agonist activation | binding to activated D2R relative to wild-type βarrestin2 ([1]; 20 minutes of 1 μM dopamine, Western blot): 3-4 fold | D2R-binding affinity versus βarrestin2 ([1]; five minutes of 1 μM dopamine): no significant difference | stability of association with activated D2R (confocal) (D2R): associate stably | localization of YFP fluorescence at the nuclear membrane (HEK-293 cells): all cells | association with endogenous RanGAP1 forms by co-immunoprecipitation (RanGAP1 [2]): associated only with SUMO-RanGAP1 | colocalization with endogenous RanGAP1 at the nuclear envelope (RanGAP1 [3]): dramatic increase in colocalization
